Laboratory results reported in US20220267377A1.
Non-standard residues stand in square brackets, D forms with d. Primed or numbered codes have the meaning given here. No end group written: not given here. *: point of attachment. PEG8′ = polyethylene glycol linker with an average of 8 ethylene glycol units; fluorPhe = fluorinated phenylalanine; Palmitoyl = CCCCCCCCCCCCCCCC(=O)*; Tic = O=C(O)[C@@H]1Cc2ccccc2CN1; Aad = N[C@@H](CCCC(=O)O)C(=O)O; Nle = CCCC[C@H](N)C(=O)O; Nva = CCC[C@H](N)C(=O)O

T1: human Chemokine-like receptor 1, CMKLR1 (ProLink (PK) tagged GPCR in PathHunter β-Arrestin cells) (human) (UniProt Q99788)
T1 sequence: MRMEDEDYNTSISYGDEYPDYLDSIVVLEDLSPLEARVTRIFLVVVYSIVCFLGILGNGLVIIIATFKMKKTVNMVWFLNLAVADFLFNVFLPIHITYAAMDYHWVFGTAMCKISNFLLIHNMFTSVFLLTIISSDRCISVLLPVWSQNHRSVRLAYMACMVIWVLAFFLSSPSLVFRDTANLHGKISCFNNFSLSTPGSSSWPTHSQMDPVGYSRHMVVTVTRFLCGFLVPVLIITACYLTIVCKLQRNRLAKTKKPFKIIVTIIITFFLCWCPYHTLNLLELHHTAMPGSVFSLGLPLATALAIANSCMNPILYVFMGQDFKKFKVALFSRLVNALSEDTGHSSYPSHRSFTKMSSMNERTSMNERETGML


Each binder was assayed against T1, human Chemokine-like receptor 1, CMKLR1 (ProLink (PK) tagged GPCR in PathHunter β-Arrestin cells) (human).

Row | EC50, PathHunter β-Arrestin recruitment assay, agonist format | Binder
1 | 1710 nM | {Palmitoyl-PEG8′}-AAYF[Nle]PSQY[dA]F[dA] [OK-107]
2 | 12.4 nM | {Palmitoyl-PEG8′}-AGFF[Nle]PSQFA[Tic][dA] [OK-115]
3 | 2.3 nM | {Palmitoyl-PEG8′}-[dA]G[dY]F[Nle]P[dS]QF[dA][Tic][dA] [OK-102]
4 | 63.9 nM | {Palmitoyl-PEG8′}-GGFF[Nle]PSQFA[Tic][dS] [OK-116]
5 | < 0.5 nM | {Palmitoyl-PEG8′}-AG[dY]F[Nle]P[dS]QFA[Tic][dS] [OK-114]
6 | 15 nM | {Palmitoyl-PEG8′}-[dA]G[dY]F[Nle]P[dS][Aad]F[dA][Tic][dA] [OK-111]
7 | 1.4 nM | {Palmitoyl-PEG8′}-[dA]G[dY]F[Nle]P[dS]Q[fluorPhe][dA][Tic][dA] (also: fluorPhe9: fluorine position not given here) [OK-112]
8 | 203 nM | {Palmitoyl-PEG8′}-AGYF[Nle]PTNFA[Tic][dA] [OK-105]
9 | < 0.5 nM | {Palmitoyl-PEG8′}-AG[dY]F[Nle]P[dS][Aad]FA[Tic][dA] [OK-109]
10 | < 0.5 nM | {Palmitoyl-PEG8′}-[Nva]G[dY]F[Nle]P[dS]QF[dA][Tic][dA] [OK-113]
11 | 2.6 nM | {Palmitoyl-PEG8′}-AAFY[Nle]PSQYA[Tic][dA] [OK-104]
12 | 32.5 nM | {Palmitoyl-PEG8′}-AAFY[Nle]PTQFA[Tic][dA] [OK-106]
13 | 43 nM | {Palmitoyl-PEG8′}-AAYF[Nle]PSQFA[Tic][dA] [OK-103]
14 | 2.6 nM | {Palmitoyl-PEG8′}-GG[dY]FLP[dS]QF[dA][Tic]S [OK-101]
